The series has as its system MS2 coat protein. Description: apparent KD of MS2 coat protein; designed switch direction (-1 OFF switch, 1 ON switch): -1; higher = weaker reporter binding. In a few lines:
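The buffer was Tris-HCl pH 7.5 with KCl, MgCl2, BSA, DTT, tRNA and Tween-20. In it, SNAP-549-labelled MS2 coat protein was titrated in doubling steps from 0.7 or 1.5 nM to 3 µM over chip-bound RNA switches transcribed by stalled E. coli RNA polymerase on Illumina chips. Apparent KD is the per-design median over clusters of curve fits to normalised fluorescence.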

Setting [1] is: Eterna round: R95, input ligand: FMN 200 uM.
Setting [2] is: Eterna round: R95, input ligand: microRNA oligo, concentration not stated.
[3] abbreviates: Eterna round: R95, input ligand: none.
The mark [4] stands for this setting: input ligand: microRNA oligo, concentration not stated.

Take “CAGCUGUCAGGAUAUCGUGCAUACAACGAAAGUUCUAUGUGCGAGAAGGGACAUGAGGAUCACCCAUGUUAACG [Omei Ex4 A25] (Eterna round: R97, puzzle: Exclusion 4)”: the “apparent KD of MS2 coat protein” value (input ligand: FMN 200 uM) amounted to 58 nM and the “apparent KD of MS2 coat protein” value (input ligand: none) amounted to 46 nM.
As to “AAGAGGUCAGGAUAUACGGGAAGAGGGAGAAGUAGAGGGUAACAUGAGGAUCACCCAUGUAGAAGGGACUAAGA [JR_Exclu2_Sub073] (puzzle: Exclusion 2)”, the “apparent KD of MS2 coat protein” value came to 26.7 nM under setting [1], 26.4 nM under setting [2] and 28.1 nM under setting [3].
Consider “GUACUGAGGCUUUGCUUUAAUCGUACAUGAGGAUCACCCAUGUAGGAUAUGGUAGGCUUUGCUUACCAGAAGGACAGAGUGAUC [JL EXNG3 1.23] (Eterna round: R96, puzzle: Exclusion NG 3)”, for which the “apparent KD of MS2 coat protein” value turned out to be 148 nM (input ligand: FMN 200 uM), 121 nM under setting [4] and 162 nM (input ligand: none).
“UGAGCUGAAGGAUAUGCGUAAUCACGGUGACGUGUAGAUCUACAUGAGGAUCACCCAUGUAGAAGGUCAGUUCU [Mat - Exclusion 2 - JL Mod - D33] (Eterna round: R97, puzzle: Exclusion 2)”: the “apparent KD of MS2 coat protein” value (input ligand: FMN 200 uM) was determined as 17 nM and the “apparent KD of MS2 coat protein” value (input ligand: none) stood at 16.1 nM.
In the same order, the values of “CGGGUCUGAGGAUAUCCACCCUCAUACAUGAGGAUCACCCAUGUUCACCCUUGGGUUCCCGGAGAAGGCAGUUUUC [Megrez-3.6] (Eterna round: R97, puzzle: Exclusion 5)” are 275 nM and 208 nM.
In the case of “AGUUGUUGCGCAGGAUAUGAGGAUCACCCAUAGUAGGAUAUCGAAAGGGAAGGACUGAGGAUUACCCAGAAGGGCGUGAUGACA [pwkr exNG2 2xF5 2xFMN.7] (Eterna round: R96, puzzle: Exclusion NG 2)”, the “apparent KD of MS2 coat protein” value stood at 1530 nM (input ligand: FMN 200 uM), 292 nM under setting [4] and 302 nM (input ligand: none).
Regarding “AAGCAGCGAGGAUAUGCUUGAGCGUGUCCUAGUUGAAAUAAACUUGAGGAUCACCCAAGUAGAAGGCGCAGCCC [Rivezaed] (Eterna round: R97, puzzle: Exclusion 2)”, the “apparent KD of MS2 coat protein” value runs as follows: (input ligand: FMN 200 uM) 135 nM; (input ligand: none) 49.1 nM.
Take “CCUGGGUCAUCGCCCAGGAACAACAUGAGGAUCACCCAUGUCUAGGAUAUCCACCAGUCAAUAAAGGAGAAGGAGACGGUGGUU [Enusonor] (Eterna round: R96, puzzle: Exclusion NG 3)”: the “apparent KD of MS2 coat protein” value was 22.9 nM (input ligand: FMN 200 uM), 14.6 nM under setting [4] and 21.2 nM (input ligand: none).
“ACCUCACAUGAGGAUCACCCAUGUCAGGAUAUGUACCCGAUCAAGUCAGAGAUUGGGAGCAGAAGGGACUGCGG [Leesla] (puzzle: Exclusion 1)”: under setting [2], the “apparent KD of MS2 coat protein” value is 104 nM.
As for “CCAAGAAUAGGAUAUACACCAUGUCAGCUUAUAUACAACGAACAUGAGGAUCACCCAUGUAGAAGGGUUCUCUC [Exclusion-2-#1] (Eterna round: R97, puzzle: Exclusion 2)”, the “apparent KD of MS2 coat protein” value reads like this: (input ligand: FMN 200 uM) 430 nM; (input ligand: none) 479 nM.
With “UGAUUCCUAGGAUAUGCUGGAUAUGAGGUCCCGAGUUGCCGACAUGAGGAUCACCCAUGUAGAAGGAGGUGUCG [Eternabot (L1) Solution 66] (Eterna round: R97, puzzle: Exclusion 2)”, the “apparent KD of MS2 coat protein” value reads like this: (input ligand: FMN 200 uM) 199 nM; (input ligand: none) 105 nM.
As for “AAGAGUAGAGGAUAUUGUUUAUGGCACAUGAGGAUCACCCAUGUAGCGAGAGUGGUGCCACAAGAAGGUUGCAUGA [Eternabot (L2) Solution 71] (Eterna round: R97, puzzle: Exclusion 5)”, the “apparent KD of MS2 coat protein” value (input ligand: FMN 200 uM) was 42.3 nM and the “apparent KD of MS2 coat protein” value (input ligand: none) amounted to 52.5 nM.
In the same order, the values of “GCUCACGCAGGAUAUACAUGAGGAUCACCCAUGUUCGAAGGGCGUGGGUACAAAGUCUGUAGAAGGGCGAAAAU [Edrereve] (Eterna round: R97, puzzle: Exclusion 3)” are 20.6 nM and 17.4 nM.
Take “AAUAACAAGCCGAUCCUAAACAUGAGGAUCACCCAUGUGCUCGUCUUGUAAAGUACUAUCACGAAAGUGAUAGUACA (Eterna round: R96, puzzle: Sensor v3, turn-off variant 1)”: the “apparent KD of MS2 coat protein” value is, setting by setting: (input ligand: FMN 200 uM) 18.1 nM; under setting [4], 220 nM; (input ligand: none) 19.3 nM.
As to “GGUUGGCGAGGAUAUACAUGAGGAUCACCCAUGUGAGAGAAAAAAGUGCGGAAGAAAAGUAGAAGGCGCUGACG [salish99_ex3_r3_029] (puzzle: Exclusion 3)”, the “apparent KD of MS2 coat protein” value runs as follows: under setting [1], 82.7 nM; under setting [2], 25.1 nM; under setting [3], 25.7 nM.
In the case of “GAACCAUGAGGAUAUUCUGAUCCUAACAUGAGGAUCACCCAUGUGAGUACAAAAGUACUCGAAGAAGGCAUGGUUC [Omei Ex5 B2] (Eterna round: R97, puzzle: Exclusion 5)”, the “apparent KD of MS2 coat protein” value was 819 nM (input ligand: FMN 200 uM) and 428 nM (input ligand: none).
For the sequence “UUCUUAUAUGAAGGAUAUACUUAACAUGAGGAUCACCCAUGUGGUGUUGUGAGUGAGUGAGUUUAGUAGAAGGUCAAUUCUUUU [JMF's solution 95] (Eterna round: R96, puzzle: Exclusion NG 2)”, the “apparent KD of MS2 coat protein” value turned out to be 818 nM (input ligand: FMN 200 uM), 326 nM under setting [4] and 355 nM (input ligand: none).
For “CAGUACUGAGGAUAUACAUGAGGAUCACCCAUGUGUACCAGCUAGGAAACUAGCAAAAGUAGAAGGCAGUACUG [828 mod 2 m10] (Eterna round: R97, puzzle: Exclusion 3)”, the “apparent KD of MS2 coat protein” value (input ligand: FMN 200 uM) was 32.6 nM and the “apparent KD of MS2 coat protein” value (input ligand: none) is 14.9 nM.
As to “UGUUGUCGCGUAGGAUAUGAGGAUCACCCAUAUAGAGGAUAUGAAAAGAAGGCUCUGAGGAUCACCCAGAAGGACGGGACAACU [pwkr exNG2 2xF5 2xFMN.24] (Eterna round: R96, puzzle: Exclusion NG 2)”, the “apparent KD of MS2 coat protein” value is, setting by setting: (input ligand: FMN 200 uM) 1720 nM; under setting [4], 214 nM; (input ligand: none) 207 nM.
Consider “AUCAUGUAAGGAUAUCUUAUAUGGAUCUUCGGAUCAAGUUAAGAGAAGGUACAUGAGGAUCACCCAUGUAUAAC [Ex4-3: 32] (puzzle: Exclusion 4)”, for which, under setting [2], the “apparent KD of MS2 coat protein” value worked out at 24.3 nM.
Consider “AACAAAACGCGAGGAUAUCGCCAACAUGAGGAUCACCCAUGUCACGGGUGCAAAUGUCUUCUAGGCGAGAAGGCGCAUCCAUAC [Diatza] (Eterna round: R96, puzzle: Exclusion NG 2)”, for which the “apparent KD of MS2 coat protein” value is, setting by setting: (input ligand: FMN 200 uM) 704 nM; under setting [4], 344 nM; (input ligand: none) 641 nM.
As to “GUUCUGUCAGGAUAUCAAUCCGCCUGUGAUACGCAGGCGGCUGAGAAGGGACAUGAGGAUCACCCAUGUAAAGA [jl-ex4-4.23 ViennaUCT mod] (Eterna round: R97, puzzle: Exclusion 4)”, the “apparent KD of MS2 coat protein” value reads like this: (input ligand: FMN 200 uM) 74 nM; (input ligand: none) 41.2 nM.
For the sequence “AGAUGGCGAGGAUAUACAUGAGGAUCACCCAUGUGAAGAGAAAGAGUGAGGAAGAAAAGUAGAAGGCGCUGUCA [Mat - Exclusion 3 - Mod of Salish D29] (puzzle: Exclusion 3)”, the “apparent KD of MS2 coat protein” value by setting is: under setting [1], 897 nM; under setting [2], 99.7 nM; under setting [3], 88.2 nM.
Turning to “AAUGAUUGAUGAGGAUAUUGUGGUGAAACACGACGAGAAGGCAUAUGUCACAUGAGGAUCACCCAUGUGAGCCUUGUGGAUAUA [Ex NG1 #66] (Eterna round: R96, puzzle: Exclusion NG 1)”, the “apparent KD of MS2 coat protein” value by setting is: (input ligand: FMN 200 uM) 115 nM; under setting [4], 45.9 nM; (input ligand: none) 57.9 nM.
On to “GGUUGGCGAGGAUAUACAUGAGGAUCACCCAUGUGAGAGAAUAAGUGAGGAAAGAAAAGUAGAAGGCGCUGACG [Mat - Exclusion 3 - Mod of Salish D52] (puzzle: Exclusion 3)”, for which the “apparent KD of MS2 coat protein” value under setting [1] is 117 nM, the “apparent KD of MS2 coat protein” value under setting [2] was determined as 44.5 nM and the “apparent KD of MS2 coat protein” value under setting [3] is 55.1 nM.
Regarding “AGUCGAAAGAACCACAUGGACAUGAGGAUCACCCAUGUGCAAGCCUUUUUCUCGUCACUAUCGUCAAAAGACGAUAG [Omei Mir Offv1 A5] (Eterna round: R97, puzzle: Sensor, turn-off variant 1)”, the “apparent KD of MS2 coat protein” value was determined as 168 nM (input ligand: FMN 200 uM) and 227 nM (input ligand: none).
Regarding “ACCAAGCUAGGAUAUGCUUGGGCUCAAAUAAAUAAACACAAACAUGAGGAUCACCCAUGUAGAAGGAGCUUGCU [Zaabiquer] (puzzle: Exclusion 2)”, under setting [2], the “apparent KD of MS2 coat protein” value is 12.6 nM.
Regarding “AAUAAUACAGGAUAUACAGUUUAUUACAUGAGGAUCACCCAUGUUCUUCAAUGUAUAUAAGUAGAAGGGUAAGGAA [EX-5 Malc#1] (puzzle: Exclusion 5)”, the “apparent KD of MS2 coat protein” value was found to be 50.9 nM under setting [1], 25.1 nM under setting [2] and 24.3 nM under setting [3].
For the sequence “CUUCAGUAAGGAUAUCAGCUUAGGAGGUUGGUAAUGAGAGCUGAGAAGGUACAUGAGGAUCACCCAUGUUAGUU [JL Zatite mod 8] (puzzle: Exclusion 4)”, the “apparent KD of MS2 coat protein” value under setting [2] is 17 nM.
For “GUGCACGUAGGAUAUUAGAAGGAGAACAUGAGGAUCACCCAUGUUAUCCAUCACCUCCGCUAAGAAGGAUGGCCAC [EX5 C.6] (Eterna round: R97, puzzle: Exclusion 5)”, the “apparent KD of MS2 coat protein” value by setting is: (input ligand: FMN 200 uM) 14.1 nM; (input ligand: none) 13 nM.
Take “GUGUACAGAGGAUAUGCUGGAAUCUAGCGAAGCUAGGUUCCACAUGAGGAUCACCCAUGUAGAAGGCUGUACAC [Dot plot directed A v4] (puzzle: Exclusion 2)”: under setting [2], the “apparent KD of MS2 coat protein” value amounted to 19.4 nM.
For the sequence “AAUAACAGAGGAUAUACUGUUUUAUGUGUUUGUUAUUUUGAACAUGAGGAUCACCCAUGUAGAAGGCUGAUUAA [JMF 50] (puzzle: Exclusion 2)”, under setting [2], the “apparent KD of MS2 coat protein” value is 37.4 nM.

The record behind these values is the supplement of paper PMC9170038.
